Earlier results in PMC8801382.

Tests used:
[1] = biological target: beta-globin (Homo sapiens) (UniProt P68871)
[2] = biological target: alpha-globin (Homo sapiens) (UniProt P69905)

Chain of UniProt P68871 (P68871 2-147): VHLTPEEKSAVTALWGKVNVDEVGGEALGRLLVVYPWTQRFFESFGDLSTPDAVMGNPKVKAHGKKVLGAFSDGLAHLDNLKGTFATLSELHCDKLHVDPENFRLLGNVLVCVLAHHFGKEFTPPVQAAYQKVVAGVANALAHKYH

Kd [1] | Kd [2] | Substance
0.001 nM |  | alpha-globin (from UniProt P69905)
 | 17 nM | AHSP (from UniProt Q9NZD4)
